In PMC6934155:

How the values were obtained:
[1] = molecular target: Fatty acid synthase (FAS) of S. pombe, co-purified with Rad3/Rad26 (S. pombe) (UniProt Q9UUG0)
[2] = molecular target: Rad3/Rad26 (ATR/ATRIP homolog in Schizosaccharomyces pombe) with TAPm-Rad3 (S. pombe) (UniProt Q02099); experiment: co-IP

Row | specific (catalytic) activity of co-purified FAS relative to apo-state FAS [1] [%] | fold of co-precipitation compared with control (CPT-treated cells) [2] [times] | fold of co-precipitation compared with control (MMS-treated cells) [2] [times] | Substance
1 | 23.3 | – | – | Rad3/Rad26 (ATR/ATRIP homolog in Schizosaccharomyces pombe) with TAPm-Rad3, Q02099 1-2386; P36632 1-614
2 | – | 1.79 | 2.01 | Apo-state fatty acid synthase (FAS) of S. pombe with Fas1-FLAG, Q9UUG0 1-2073; Q10289 1-1842
